How the values were obtained:
[1] = molecular target: recombinant human wild-type SHMT2 (isoform 3) (human); assay: SEC; recombinant proteins purified by nickel affinity chromatography, separated by gel filtration, fractions analysed by western blot
[2] = molecular target: T1, Flag-tagged wild-type SHMT2 expressed in SHMT2-knockout HCT116 cells (human), P34897; assay: cross-linking; cell lysates treated with or without 0.025% glutaraldehyde, western blot with anti-SHMT2; SHMT2-knockout HCT116 cells expressing Flag-tagged WT or K95Q, and SIRT3-knockout or control HCT116 cells; details: remark: other sources report otherwise
T1 chain: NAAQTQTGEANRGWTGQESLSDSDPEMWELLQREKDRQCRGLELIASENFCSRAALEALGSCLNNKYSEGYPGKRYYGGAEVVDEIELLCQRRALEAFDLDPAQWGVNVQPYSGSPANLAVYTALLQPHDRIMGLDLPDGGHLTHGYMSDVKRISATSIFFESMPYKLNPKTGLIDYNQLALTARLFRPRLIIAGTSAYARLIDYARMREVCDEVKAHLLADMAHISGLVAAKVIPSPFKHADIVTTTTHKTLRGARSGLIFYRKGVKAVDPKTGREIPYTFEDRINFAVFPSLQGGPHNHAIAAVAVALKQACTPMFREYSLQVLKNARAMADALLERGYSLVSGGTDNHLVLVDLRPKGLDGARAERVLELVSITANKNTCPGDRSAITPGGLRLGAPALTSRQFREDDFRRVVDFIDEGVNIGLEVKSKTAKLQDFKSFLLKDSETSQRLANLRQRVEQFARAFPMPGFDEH

[3] = molecular target: T2, serine hydroxymethyltransferase 2 (SHMT2), endogenous in HCT116 cells (human (endogenous in HCT116)), P34897; assay: as above; details: remark: other sources report otherwise
T2 chain: T1 chain

Work on “recombinant human wild-type SHMT2 (isoform 3) (enzyme)” yielded a stoichiometry N [1] of 4.

B1: Flag-tagged wild-type SHMT2 expressed in SHMT2-knockout HCT116 cells, P34897 30-504 (natural protein)
chain: T1 chain
B1 was tested, and the stoichiometry N [2] was 4.

B2: serine hydroxymethyltransferase 2 (SHMT2), endogenous in HCT116 cells, P34897 30-504 (natural protein)
chain: T1 chain
B2 was tested, and the stoichiometry N [3] was 4.
